# Measured values reported in the Immune Epitope Database (IEDB).
# pIC50, pKd: −log10 of the molar value.
# Key:
# HLA-A*02:03 = experiment: IEDB peptide-MHC binding, purified MHC/competitive/radioactivity; filed as Kd, often an IC50 or EC50 that approximates it; ≥ and ≤ were set here for values at or beyond the usual limits of such assays
# HLA-A*02:06 = experiment: as above
# HLA-A*02:02 = experiment: as above
# HLA-B*40:01 = experiment: IEDB peptide-MHC binding, purified MHC/direct/fluorescence; filed as Kd, often an IC50 or EC50 that approximates it; ≥ and ≤ were set here for values at or beyond the usual limits of such assays; settings: source organism: Mammarenavirus lassaense
# HLA-A*02:01 [1] = experiment: IEDB peptide-MHC binding, purified MHC/competitive/fluorescence; ≥ and ≤ were set here for values at or beyond the usual limits of such assays
# HLA-A*11:01 = experiment: IEDB peptide-MHC binding, purified MHC/direct/fluorescence; filed as Kd, often an IC50 or EC50 that approximates it; ≥ and ≤ were set here for values at or beyond the usual limits of such assays; settings: source organism: West Nile virus
# HLA-A*02:01 [2] = experiment: IEDB peptide-MHC binding, purified MHC/competitive/fluorescence; filed as Kd, often an IC50 or EC50 that approximates it; ≥ and ≤ were set here for values at or beyond the usual limits of such assays
# HLA-B*51:01 = experiment: IEDB peptide-MHC binding, purified MHC/competitive/radioactivity; filed as Kd, often an IC50 or EC50 that approximates it; ≥ and ≤ were set here for values at or beyond the usual limits of such assays; settings: source organism: Dengue virus 1 Brazil/97-11/1997
# HLA-B*15:01 = experiment: IEDB peptide-MHC binding, purified MHC/direct/fluorescence; filed as Kd, often an IC50 or EC50 that approximates it; ≥ and ≤ were set here for values at or beyond the usual limits of such assays
# HLA-A*69:01 = experiment: as above
# HLA-B*58:01 = experiment: as above; settings: source organism: Pseudomonas aeruginosa
# HLA-A*02:01 [3] = experiment: as above
# HLA-A*24:02 = experiment: IEDB peptide-MHC binding, purified MHC/competitive/radioactivity; filed as Kd, often an IC50 or EC50 that approximates it; ≥ and ≤ were set here for values at or beyond the usual limits of such assays; settings: source organism: Dengue virus 1 Brazil/97-11/1997
# HLA-A*01:01 = experiment: IEDB peptide-MHC binding, purified MHC/direct/fluorescence; filed as Kd, often an IC50 or EC50 that approximates it; ≥ and ≤ were set here for values at or beyond the usual limits of such assays; settings: source organism: Amur virus
# HLA-B*53:01 = experiment: IEDB peptide-MHC binding, purified MHC/competitive/radioactivity; filed as Kd, often an IC50 or EC50 that approximates it; ≥ and ≤ were set here for values at or beyond the usual limits of such assays; settings: source organism: Dengue virus 1 Brazil/97-11/1997
# [4] = source organism: Vaccinia virus WR
# [5] = source organism: SARS coronavirus Tor2
# [6] = source organism: Zaire ebolavirus
# [7] = source organism: Mammarenavirus brazilense
# [8] = source organism: Dengue virus 1 Brazil/97-11/1997
# [9] = source organism: Pseudomonas aeruginosa
# [10] = source organism: Sudan ebolavirus
# [11] = source organism: Burkholderia pseudomallei
# [12] = source organism: Vibrio vulnificus
Sequence,pKd (HLA-A*02:03; [4]),pKd (HLA-A*02:06; [4]),pKd (HLA-A*02:02; [4]),also measured
LISSDGARVI,5.94,≤ 4.46,5.14,
EEFCDMLRL,,,,pKd (HLA-B*40:01): 6.59
VIVVPVIDRL,≤ 4.23,4.95,5.34,
ALLEDPVGT,,,,pIC50 (HLA-A*02:01 [1]; source organism: Human alphaherpesvirus 1 strain 17): 7.55
ELAYYNSCML,6.82,5.45,5.73,
VLSLIGLKR,,,,pKd (HLA-A*11:01): ≤ 4.70
IASKINNNRI,4.73,5.03,6.14,
YIGEVLVSV,,,,pIC50 (HLA-A*02:01 [1]; source organism: Homo sapiens): 8.00
EIVKNIREGT,5.07,≤ 4.22,≤ 4.55,
YALCTLLHL,,,,pKd (HLA-A*02:03; [5]): 6.11; pKd (HLA-A*02:06; [5]): 8.82; pKd (HLA-A*02:02; [5]): 5.88
SVGGVFTSV,,,,pIC50 (HLA-A*02:01 [1]; source organism: West Nile virus NY-99): 6.61
KLTFLDVEV,,,,pKd (HLA-A*02:01 [2]; source organism: Variola virus): 8.00
FQESADSFL,,,,pIC50 (HLA-A*02:01 [1]; [6]): 4.85
HSLPRCWLV,,,,pKd (HLA-A*02:03; [7]): 6.84; pKd (HLA-A*02:06; [7]): 6.49; pKd (HLA-A*02:02; [7]): 6.18
KISNTTFEV,,,,pKd (HLA-A*02:01 [2]; source organism: Vaccinia virus): 8.72
DQLVFNSISA,6.54,6.12,6.69,
FSLGILCVSI,,,,pKd (HLA-B*51:01): ≤ 4.40; pKd (HLA-A*02:06; [8]): 8.44
LTKLFSYGT,,,,pIC50 (HLA-A*02:01 [1]; source organism: Variola virus): 4.44
IISTDQDTM,≤ 4.48,5.63,5.37,
NQGNILMDSI,5.39,5.51,5.41,
LVIRNEVNDT,4.82,5.66,5.26,
QAKKPEVRI,5.18,≤ 4.38,6.13,
ILGRYLPEF,,,,pKd (HLA-B*15:01; [9]): 6.82; pKd (HLA-A*69:01; [9]): 4.74; pKd (HLA-B*58:01): 6.84; pKd (HLA-A*02:01 [3]; [9]): 5.38

Sequence,pKd (HLA-A*02:03; [4]),pKd (HLA-A*02:06; [4]),pKd (HLA-A*02:02; [4]),also measured
LLFLKDVEP,,,,pKd (HLA-A*02:01 [2]; [4]): 7.87
HLHQQLSNT,,,,pIC50 (HLA-A*02:01 [1]; [10]): 4.82
YIILFILFFA,6.17,5.98,6.58,
QLMCQPILLL,,,,pKd (HLA-A*02:03; [5]): 6.66; pKd (HLA-A*02:06; [5]): 6.49; pKd (HLA-A*02:02; [5]): 7.03
AFPQSNAVI,,,,pKd (HLA-A*24:02): 5.54
KGGEAQFLV,,,,pKd (HLA-B*58:01): 6.13
TTELNIVDEI,≤ 4.15,≤ 4.67,≤ 4.41,
PTSETMYLT,5.44,≤ 4.11,4.98,
WAYHGSYEV,,,,pKd (HLA-B*51:01): 7.95; pKd (HLA-A*02:06; [8]): 7.61
GIIITVGML,6.46,4.74,5.06,
CVDHPFIYVI,4.97,5.79,6.02,
DAAVVFPPV,,,,pKd (HLA-A*69:01; [11]): 9.40; pKd (HLA-A*02:01 [3]; [11]): ≤ 4.70
KLLNMRDLIV,7.53,8.56,6.71,
LTSSSKYTY,,,,pKd (HLA-A*01:01): 7.48
FLTNKLLLFA,,,,pKd (HLA-A*02:03; [5]): 8.85; pKd (HLA-A*02:06; [5]): 8.13; pKd (HLA-A*02:02; [5]): 9.38
IMTSTRTIIL,7.28,6.36,5.99,
YLIHDNIMYT,,,,pKd (HLA-A*02:01 [2]; [4]): 8.85
CLEKVQRQI,,,,pIC50 (HLA-A*02:01 [1]; [6]): 4.66
LSFTVVSNG,,,,pIC50 (HLA-A*02:01 [1]; [6]): ≤ 3.49
MVPLHIPEG,,,,pIC50 (HLA-A*02:01 [1]; [10]): 4.42
FVEGLSGATW,,,,pKd (HLA-B*53:01): 7.84
HLAGFIHAC,,,,pKd (HLA-B*15:01; [12]): 5.64; pKd (HLA-A*02:01 [3]; [12]): 7.67
LAEHISDSI,6.14,4.72,7.34,
